In the supplement of paper PMC12667976:
± gives the standard error.

B1: library; numbered along this chain (parent)
chain: MATDAALRRLLRLHRTEIAVAVDSAFPLLHALADHDVVPEDKFQETLHLKEKEGCPQAFHALLSWLLTQDSTAILDFWRVLFKDYNLERYGRLQPILDSFPKDVDLSQPRKGRKPPAVPKALVPPPRLPTKRKASEEARAAAPAALTPRGTASPGSQLKAKPPKKPESSAEQQRLPLGNGIQTMSASVQRAVAMSSGDVPGARGAVEGILIQQVFESGGSKKCIQVGGEFYTPSKFEDSGSGKNKARSSSGPKPLVRAKGAQGAAPGGGEARLGQQGSVPAPLALPSDPQLHQKNEDECAVCRDGGELICCDGCPRAFHLACLSPPLREIPSGTWRCSSCLQATVQEVQPRAEEPRPQEPPVETPLPPGLRSAGEEVRGPPGEPLAGMDTTLVYKHLPAPPSAAPLPGLDSSALHPLLCVGPEGQQNLAPGARCGVCGDGTDVLRCTHCAAAFHWRCHFPAGTSRPGTGLRCRSCSGDVTPAPVEGVLAPSPARLAPGPAKDDTASHEPALHRDDLESLLSEHTFDGILQWAIQSMARPAAPFPS

Variants of: B1
Assay: AIRE transcriptional activation functional score (insulin promoter-GFP; nonsense median 0, synonymous median 1) (normalised score); higher = higher AIRE activity (more reporter activation)
Settings: with insulin promoter-GFP reporter in HEK293
How it was run: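 Functional scores come from comparing select with non-select enrichment of each variant and subtracting wild type. Codon-optimized AIRE NNN-codon libraries across three regions were integrated via Bxb1 recombinase into HEK293 landing-pad cells with an insulin core promoter-GFP reporter, and integrants sorted at day 7 were expanded 7 days before top 10% GFP and unselected populations were tile-sequenced. Variants needed 10 counts per million in non-select, and values were rescaled to nonsense median 0 and synonymous median 1 before averaging over biological replicates.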

Row | Variant | AIRE transcriptional activation functional score
1 | R513W | 0.733 ± 0.048
2 | R513M | 1.01 ± 0.11
3 | L341F | 1.01 ± 0.089
4 | L341T | 1.03 ± 0.2
5 | A510S | 0.921 ± 0.32
6 | A510V | 1.09 ± 0.28
7 | A140F | 1.71 ± 0.3
8 | S71K | 1.2 ± 0.25
9 | H30W | -0.339 ± 0.39
10 | E167R | 0.328 ± 0.84
11 | E329I | 1.46 ± 0.24
12 | R371Y | 1.39 ± 0.15
13 | C472Q | -0.424 ± 0.073
14 | K259A | 1.23 ± 0.051
15 | K259Y | 1.31 ± 0.23
16 | G379K | 1.19 ± 0.07
17 | G379W | 1.23 ± 0.066
18 | P509K | 0.522 ± 0.078
19 | I74P | 0.409 ± 0.41
20 | H35C | -0.102 ± 0.14
21 | T504R | 0.922 ± 0.17

Row | Variant | AIRE transcriptional activation functional score
22 | V393Q | -0.242 ± 0.092
23 | P126L | 0.122 ± 0.14
24 | G269A | 1.39 ± 0.3
25 | T3G | 0.0107 ± 0.19
26 | S339P | 1.13 ± 0.22
27 | L67R | -0.769 ± 0.77
28 | I96H | 1.08 ± 0.16
29 | I96Y | 0.139 ± 0.17
30 | P367G | 0.153 ± 0.37
31 | P367W | 1.97 ± 0.069
32 | P367A | 0.781 ± 0.26
33 | F26N | 0.281 ± 0.066
34 | F26D | 0.00972 ± 0.37
35 | V104K | -0.552 ± 0.34
36 | V104Y | 0.986 ± 0.42
37 | D36T | -0.367 ± 0.13
38 | F82S | 0.375 ± 0.67
39 | K42R | -0.281 ± 0.49
40 | Q290F | 1.21 ± 0.16
41 | Q290R | 1.2 ± 0.41
42 | D439T | 1.03 ± 0.33

Row | Variant | AIRE transcriptional activation functional score
43 | A429P | 0.614 ± 0.34
44 | A5L | 1 ± 0.51
45 | T463I | 0.876 ± 0.1
46 | R110N | 0.62 ± 0.23
47 | H448T | 1.54 ± 0.085
48 | G333S | 0.365 ± 0.58
49 | R465L | 1.01 ± 0.4
50 | P233K | 0.232 ± 0.13
51 | S220Y | -0.203 ± 0.11
52 | P266M | 1.44 ± 0.081
53 | V348D | 1.01 ± 0.076
54 | T183L | 0.699 ± 0.17
55 | T183Q | 0.469 ± 0.075
56 | T130V | 0.747 ± 0.4
57 | T130W | 1.39 ± 0.29
58 | T130F | 1.71 ± 0.24
59 | M184F | 0.676 ± 0.1
60 | G251Y | 1.42 ± 0.24
61 | G251R | 0.585 ± 0.39
62 | L32C | -0.199 ± 0.51
63 | D297L | 0.697 ± 0.32

Row | Variant | AIRE transcriptional activation functional score
64 | D502S | 0.804 ± 0.26
65 | G228H | -2 ± 0.29
66 | F43R | 0.134 ± 0.58
67 | L255V | 1 ± 0.28
68 | T147N | 1.26 ± 0.56
69 | D515V | 0.106 ± 0.15
70 | A191V | 0.157 ± 0.24
71 | P542G | 0.957 ± 0.13
72 | P401A | 0.611 ± 0.47
73 | L81T | 0.331 ± 0.22
74 | L81P | 0.303 ± 0.071
75 | P539N | 0.745 ± 0.36
76 | A532L | 1.01 ± 0.31
77 | A532F | -0.19 ± 0.1
78 | P325Q | 0.938 ± 0.21
79 | P325T | 0.777 ± 0.25
80 | L175I | 0.709 ± 0.34
81 | L175H | 1.33 ± 0.61
82 | I18W | 0.00284 ± 0.15
83 | M194G | 0.75 ± 0.19
84 | M194T | 0.367 ± 0.34
